Reference: publication PMC2422856

Target: CapAB(K55M), inactive P-loop mutant of the CapAB chimeric protein, unphosphorylated (Staphylococcus aureus)
Test: crystal structure; CapAB(K55M) at 8.5 mg/ml with 10 mM MgCl2, 20% (v/v) PEG 1000, 200 mM glycine, 0.1 M Na-Hepes pH 7.5, 18 °C; 2.6 Å

“CapAB(K55M), inactive P-loop mutant of the CapAB chimeric protein, unphosphorylated” showed a stoichiometry N of 8.
